Assay results: publication PMC12499447, “API5 Phosphorylation Promotes Antiviral Immunity by Inhibiting Degradation of Cytosolic RNA Sensor RLRs” (Advanced Science, 2025)
Blank lines part the entries; values can stand above or below the molecule they belong to.

Legend:
RIG‐I = RIG‐I (UniProt O95786); experiment: co-IP; conditions: reference: API5 wild type; sites S464
p62 = p62 (UniProt Q13501); experiment: co-IP; conditions: reference: API5 wild type; sites S464
MDA5 = MDA5 (UniProt Q9BYX4); experiment: co-IP; conditions: reference: API5 wild type; sites S464
His-SRPK1 = biological target: T1, His-SRPK1 (human (amplified from HEK293T cells), UniProt Q96SB4 1-655); experiment: pull-down; purified GST-API5 (20 ng) or GST (20 ng) incubated with His-SRPK1 (50 ng) at 4 °C for 4 h; captured on GST resin; washed five times with NP-40 lysis buffer; immunoblot; conditions: both partners purified
T1 construct: SRPK1, full-length gene amplified from HEK293T cells, in pET-28a; also called pET-28a-SRPK1; source: E. coli BL21 (pLysS), purified (Ni-NTA)

binding against the reference (RIG‐I): lost
binding against the reference (p62): weaker
binding against the reference (MDA5): lost
Molecule: API5 (from UniProt Q9BZZ5) API5 S464A

binding result (His-SRPK1): binds
B1: GST-API5 (natural protein, human, UniProt Q9BZZ5 1-524, looked up)
chain: MPTVEELYRNYGILADATEQVGQHKDAYQVILDGVKGGTKEKRLAAQFIPKFFKHFPELADSAINAQLDLCEDEDVSIRRQAIKELPQFATGENLPRVADILTQLLQTDDSAEFNLVNNALLSIFKMDAKGTLGGLFSQILQGEDIVRERAIKFLSTKLKTLPDEVLTKEVEELILTESKKVLEDVTGEEFVLFMKILSGLKSLQTVSGRQQLVELVAEQADLEQTFNPSDPDCVDRLLQCTRQAVPLFSKNVHSTRFVTYFCEQVLPNLGTLTTPVEGLDIQLEVLKLLAEMSSFCGDMEKLETNLRKLFDKLLEYMPLPPEEAENGENAGNEEPKLQFSYVECLLYSFHQLGRKLPDFLTAKLNAEKLKDFKIRLQYFARGLQVYIRQLRLALQGKTGEALKTEENKIKVVALKITNNINVLIKDLFHIPPSYKSTVTLSWKPVQKVEIGQKRASEDTTSGSPPKKSSAGPKRDARQIYNPPSGKYSSNLGNFNYEQRGAFRGSRGGRGWGTRGNRSRGRLY
notes: API5, human, full-length gene amplified from HEK293T cells, in pGEX-4T-1; also called pGEX-4T-1-API5; source: E. coli BL21 (pLysS), purified (glutathione resin)
